According to article PMC12407318:

B1: Annexin A2 (Anxa2): S22A (protein)
parent chain: MSTVHEILCKLSLEGDHSTPPSAYGSVKPYTNFDAERDALNIETAVKTKGVDEVTIVNILTNRSNVQRQDIAFAYQRRTKKELPSALKSALSGHLETVILGLLKTPAQYDASELKASMKGLGTDEDSLIEIICSRTNQELQEINRVYKEMYKTDLEKDIISDTSGDFRKLMVALAKGRRAEDGSVIDYELIDQDARELYDAGVKRKGTDVPKWISIMTERSVCHLQKVFERYKSYSPYDMLESIKKEVKGDLENAFLNLVQCIQNKPLYFADRLYDSMKGKGTRDKVLIRIMVSRSEVDMLKIRSEFKRKYGKSLYYYIQQDTKGDYQKALLYLCGGDD
B2: Annexin A2 (Anxa2): S26A (protein)
parent chain: B1 parent chain

Assay: sheep red blood cell hemolysis, OD542
Conditions: glycan lost; control: WT Anxa2

Row | Protein | other: MBL-MASP complement activation
1 | B1 | decreases
2 | B2 | decreases
